T1: human DLL1 on 293T-hDLL1 cells (human, UniProt O00548 18-723)
T1 construct: whole, on cells; also called 293T-DLL1; HEK293T-hDLL1
T1 sequence (looked up): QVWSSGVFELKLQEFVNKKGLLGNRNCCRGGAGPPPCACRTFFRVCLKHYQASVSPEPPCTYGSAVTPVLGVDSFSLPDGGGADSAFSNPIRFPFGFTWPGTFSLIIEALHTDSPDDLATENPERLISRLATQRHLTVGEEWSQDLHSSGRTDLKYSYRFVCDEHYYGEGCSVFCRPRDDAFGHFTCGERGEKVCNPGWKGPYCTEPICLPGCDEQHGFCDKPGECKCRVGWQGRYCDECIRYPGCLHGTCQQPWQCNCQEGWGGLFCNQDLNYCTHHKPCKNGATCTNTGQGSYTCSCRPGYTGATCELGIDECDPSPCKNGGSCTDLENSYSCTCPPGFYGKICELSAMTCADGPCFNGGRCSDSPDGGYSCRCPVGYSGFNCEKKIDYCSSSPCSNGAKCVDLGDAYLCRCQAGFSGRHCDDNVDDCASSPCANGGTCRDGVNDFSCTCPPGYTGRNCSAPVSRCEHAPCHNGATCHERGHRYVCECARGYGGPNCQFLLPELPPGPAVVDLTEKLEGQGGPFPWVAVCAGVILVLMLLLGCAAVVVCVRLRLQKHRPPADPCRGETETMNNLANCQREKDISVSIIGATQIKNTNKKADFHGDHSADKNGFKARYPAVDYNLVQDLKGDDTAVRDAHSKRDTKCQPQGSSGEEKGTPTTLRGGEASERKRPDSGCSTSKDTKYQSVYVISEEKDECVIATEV

T2: recombinant extracellular domain protein of human DLL3 (h.DLL3-ECD-His) (human, UniProt Q9NYJ7 27-492)
T2 construct: extracellular domain; Commercial protein; also called human DLL3 antigen; not shown: His tag
T2 sequence (looked up): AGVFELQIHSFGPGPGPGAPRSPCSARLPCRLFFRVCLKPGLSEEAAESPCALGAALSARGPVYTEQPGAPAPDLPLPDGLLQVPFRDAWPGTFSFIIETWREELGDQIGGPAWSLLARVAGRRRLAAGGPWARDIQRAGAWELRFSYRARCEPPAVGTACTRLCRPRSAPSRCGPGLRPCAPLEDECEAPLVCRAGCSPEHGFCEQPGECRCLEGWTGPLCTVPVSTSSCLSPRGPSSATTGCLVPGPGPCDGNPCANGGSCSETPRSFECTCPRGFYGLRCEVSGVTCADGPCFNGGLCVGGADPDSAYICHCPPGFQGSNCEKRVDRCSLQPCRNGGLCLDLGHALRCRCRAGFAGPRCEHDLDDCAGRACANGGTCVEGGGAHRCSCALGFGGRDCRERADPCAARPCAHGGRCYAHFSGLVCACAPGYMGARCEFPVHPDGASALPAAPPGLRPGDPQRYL

T3: recombinant extracellular domain protein of cynomolgus monkey DLL3 (cyno.DLL3-ECD-His) (cynomolgus monkey, UniProt A0A2K5WSR1 27-490)
T3 construct: extracellular domain; Commercial protein; not shown: His tag
T3 sequence: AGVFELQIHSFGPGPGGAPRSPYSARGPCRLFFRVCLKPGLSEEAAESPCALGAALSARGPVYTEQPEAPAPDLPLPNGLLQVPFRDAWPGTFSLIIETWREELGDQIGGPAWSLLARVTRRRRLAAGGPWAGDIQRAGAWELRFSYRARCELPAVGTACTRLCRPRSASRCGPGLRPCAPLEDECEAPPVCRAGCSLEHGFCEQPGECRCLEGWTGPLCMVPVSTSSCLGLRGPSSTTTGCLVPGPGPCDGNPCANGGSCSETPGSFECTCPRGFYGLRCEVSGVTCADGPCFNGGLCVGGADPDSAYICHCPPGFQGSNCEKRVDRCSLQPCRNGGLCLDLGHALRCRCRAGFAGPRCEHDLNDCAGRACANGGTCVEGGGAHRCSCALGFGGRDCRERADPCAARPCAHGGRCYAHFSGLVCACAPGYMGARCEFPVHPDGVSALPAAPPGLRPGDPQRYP

B1: 6F11C10-Hz1 antibody (antibody, human IgG1, kappa, V domains shown)
VH: EVQLVQSGAEVKKPGASVKVSCKASGFTFTDYYMHWVRQAPGQSLEWMGLVYPYNGDISYAQKFQGRVTLTVDTSISTAYMELSRLRSDDTAVYYCARQGNYVNNAIDYWGQGTLVTVSS
VL: DIQMTQSPSSLSASVGDRVTITCKASQNVGNIIAWYQQKPGKSPKALIYLASYRYSGVPSRFSGSGSGTDFTLTISSLQPEDVATYFCQQYSDSPYTFGQGTKVEIKR
notes: Humanized IgG1/kappa
B2: 87F7F10-Hz (antibody, human IgG1, kappa, V domains shown)
VH: QVQLQESGPGLVKPSETLSLTCTVSGYSITSDFYWNWIRQPPGKGLEWIGYITYDGSTNYNPSLKSRVTISRDTSKNQFSLKLSSVTAADTAVYYCVYGDFNRHAMDYWGQGTLVTVSS
VL: DIVMTQSPDSLAVSLGERATINCRSSQSLFNSRTRKNYLAWYQQKPGQPPKVLIYWASTRESGVPDRFSGSGSGTDFTLTISSLQAEDVAVYYCEQSFYLFTFGQGTKVEIKR
notes: Humanized; also called 87F7F10-hz1
B3: 55C11E4-Hz1 (antibody, human IgG1, kappa, V domains shown)
VH: EVQLVQSGAEVKKPGASVKVSCKASGYTFTDYYMNWVRQAPGQRLEWMGVINPYNGGTNYSQKFQGRVTLTVDKSASTAYMELSSLRSEDTAVYYCARDSNYVGLLDYWGQGTLVTVSS
VL: DIVLTQSPATLSLSPGERATLSCRASQSISNNLHWYQQKPGQAPRLLIKYASQSISGIPARFSGSGSGPDFTLTISSLEPEDFAVYFCQQSNSWPYTFGQGTKVEIKR
notes: Humanized IgG1/kappa
B4: 10F2F3-Hz antibody (antibody, human IgG1, kappa, V domains shown)
VH: QVQLVESGAEVKKPGSSVKVSCKASGYAFSSHWVNWVRQAPGQGLEWMGQIYPGNGDTNYAQKFQGRVTLTADKSTSTAYMELSSLTSEDTAVYFCARWFAYWGQGTLVTVSS
VL: DIQMTQSPSSLSASVGDRVTITCKSSQSLLDGGNQKNYLAWYQQKPGKPPKLLVYFASIRESGVPSRFSGSGSGTDFTLTISSLQPEDFATYYCQQHYNTPWTFGQGTKVEIKR
notes: Humanized
B5: 59B10D3-Hz antibody (antibody, human IgG1, kappa, V domains shown)
VH: EVQLVESGGGLVQPGGSLRLSCAASGFTFSDAWMDWVRQAPGKGLEWVAEIRNKANNHATYYVDSVKGRFTISRDDAKNSVYLQMNSLRAEDTAVYYCTRNNYGSTWTYYAMDYWGQGTLVTVSS
VL: DIQMTQSPSSLSASVGDRVTITCRASQDISNYLNWYQQKPGKAVKLLIYYTSRLHSGVPSRFSGSGSGTDYTLTISSLQPEDFATYYCQQGYTLPLTFGQGTKVEIKR
notes: Humanized; also called 59B10D3-hz1
B6: DL301 (antibody, V domains shown)
VH: QVQLQQSGADLVRPGTSVKVSCKASGYAFTNYLIEWIKQRPGQGLEWIGVMNPGSGGTHYSEKFRGKATLTADKSSSTAYMQLISLTSDDSAVYFCARSDYDYVTYAMDYWGQGTSVTVSS
VL: DIKMTQSPSSMYASLGERVTITCKASQDINSYLIWFQQKPGKSPKTLIYRTNRLVDGVPSRFSGSGSGQDYSLTISSLEYGDMGIYYCLQYDEFPFTFGSGTKLEIK
B7: DL306 (antibody, V domains shown)
VH: EVQLQQSGPELVKPGASVKMSCRASGYTFTDYYMKWVKQSHGKSLEWIGDINPNNGDTFYNQKFKGKATLTIDKSSSTAYMQLNSLTSDDSAVYYCARDGNYAYFDYWGQGTTLTVSS
VL: DIVLTQSPASLAVSLGQRATISCRASKSVSTSGYSYMHWYQQKPGQPPKLLIFLASNLESGVPARFSGSGSGTDFTLNIHPVEEEDAATYYCQHSRHLPWTFGGGTKLEIK
B8: DL309 (antibody, V domains shown)
VH: QVQLQQSGGDLMKPGASVKISCKAAGYTFSNYYIEWVKQRPGHGLEWIGEILPGSGSTTYNEKFKGKASFTADTSSNTAYMQLSSLTSEDSAVYYCARWGAREPGFPYWGQGTLVTVSA
VL: DIVMTQSQKFMSTSVGDRVSVTCKASQNVGTNVAWYQQKPGQSPKALIYSASYRYSGVPDRFTGSGSGTDFTLTISNVQSEDLAEYFCQQYNNYPLTFGAGTKLELK
B9: DL312 (antibody, V domains shown)
VH: EVKLVESGGGLVQPGGSLSLSCAASGFTFTDYYMNWVRQPPGKALEWLALIRNKANGYTTEYNASVKGRFTISRDNSQNILYLQMNALRAEDSATYYCARDSDGYYEYYFDYWGQGTTLTVSS
VL: DIQMTQSPSSLSASLGERVSLTCRASQEISDYLSWLQQKPDGTIKRLIFAASTLDSGVPKRFSGSRSGSDFSLSISSLESEDFADYYCLQYASYPYTFGSGTKLEIK

target: T1, human DLL1 on 293T-hDLL1 cells; assay: flow cytometry on HEK293T-hDLL1 cells

binding result	Binder
no binding (tested: 20 µg/mL)	B1
no binding (tested: 20 µg/mL)	B2
no binding (tested: 20 µg/mL)	B3
no binding (tested: 20 µg/mL)	B4
no binding (tested: 20 µg/mL)	B5

target: T4, human DLL4 on 293T-hDLL4 cells (human, UniProt Q9NR61 27-685); assay: flow cytometry on HEK293T-hDLL4 cells
T4 construct: whole, on cells; also called 293T-DLL4; HEK293T-hDLL4
T4 sequence (Q9NR61 27-685): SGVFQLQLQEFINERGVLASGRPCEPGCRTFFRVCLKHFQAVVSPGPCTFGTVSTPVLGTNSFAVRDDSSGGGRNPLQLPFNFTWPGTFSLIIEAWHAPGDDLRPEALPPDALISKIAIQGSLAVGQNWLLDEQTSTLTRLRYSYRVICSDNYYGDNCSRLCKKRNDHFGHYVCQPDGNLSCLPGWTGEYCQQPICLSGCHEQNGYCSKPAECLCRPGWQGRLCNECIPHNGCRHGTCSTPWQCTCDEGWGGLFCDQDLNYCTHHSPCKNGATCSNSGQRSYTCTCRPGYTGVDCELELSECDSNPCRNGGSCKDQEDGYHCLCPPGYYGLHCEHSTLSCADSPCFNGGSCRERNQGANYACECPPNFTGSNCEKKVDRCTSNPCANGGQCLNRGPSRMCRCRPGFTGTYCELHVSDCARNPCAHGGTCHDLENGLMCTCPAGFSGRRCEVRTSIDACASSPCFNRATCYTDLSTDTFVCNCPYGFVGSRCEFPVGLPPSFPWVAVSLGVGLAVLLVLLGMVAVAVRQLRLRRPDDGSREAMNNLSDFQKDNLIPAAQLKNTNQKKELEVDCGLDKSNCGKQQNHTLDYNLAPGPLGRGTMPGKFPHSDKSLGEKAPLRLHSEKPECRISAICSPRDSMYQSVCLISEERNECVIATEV

binding result	Binder
no binding (tested: 20 µg/mL)	B1
no binding (tested: 20 µg/mL)	B2
no binding (tested: 20 µg/mL)	B3
no binding (tested: 20 µg/mL)	B4
no binding (tested: 20 µg/mL)	B5

target: T2, recombinant extracellular domain …; assay: ELISA, coated h.DLL3-ECD-his 0.2 µg/mL, antibody titrated

EC50 [ng/mL]	Binder
4.7	B1
3.8	B2
3.9	B3
3.4	B4
5.2	B5

target: T3, recombinant extracellular domain …; assay: ELISA, coated cyno.DLL3-ECD-his 0.2 µg/mL, antibody titrated

EC50 [ng/mL]	Binder
5.4	B1
3.3	B2
4.1	B3
3.5	B4
6.3	B5

target: T2, recombinant extracellular domain …; assay: BLI (ForteBio), antibody on ProA sensor, hDLL3-ECD-His in solution

Kd [nM]	koff [s⁻¹]	kon [M⁻¹ s⁻¹]	Binder
0.243	4.27e-05	175000	B1
8.57	0.000218	25400	B2
5.26	0.000652	124000	B3
6.07	0.00045	74200	B4
14	0.0017	122000	B5

target: T2, recombinant extracellular domain …; assay: ELISA, titrated antibody on plate-coated human DLL3, OD450nm

EC50 (read off the curve) [ng/mL]	Binder
~4	B6
~5	B7
~6	B8
~5	B9

target: T3, recombinant extracellular domain …; assay: BLI (ForteBio), antibody on ProA sensor, cynoDLL3-ECD-His in solution

Kd [nM]	koff [s⁻¹]	kon [M⁻¹ s⁻¹]	Binder
0.873	0.000328	375000	B1
2.41	8.84e-05	36700	B2
2.37	0.000479	202000	B3
1.28	0.000122	95100	B4
9.08	0.000908	100000	B5

From patent publication US20260166168A1 (MEDILINK THERAPEUTICS SUZHOU, published 2026)
